Patent US20230349919A1 (Regeneron, published 2023)

Legend:
[1] = biological target: T1, human IL-4Rα (hIL-4Rα) monomeric protein (human, UniProt P24394 26-232, limits assumed); assay: barcoded-antigen count on source cell (scRNA-seq)
T1 construct: also called hIL-4Rα antigen; barcoded hIL-4Rα

[2] = biological target: T1, human IL-4Rα (hIL-4Rα) monomeric protein; assay: Biacore (SPR)
[3] = biological target: T1, human IL-4Rα (hIL-4Rα) monomeric protein; assay: Biacore (SPR); negative log10 of Kd

| Binder | REGN560.L15_ab_raw [1] [counts] | Kd [2] [nM] | negLog10Kd [3] |
| --- | --- | --- | --- |
| Table 1 Line # 2 antibody (BM_Plasma_cell) (antibody, human IgG4, V domains shown, Cloned with human IgG4/human Igk constants for Kd; barcode counts are of the source cell's own IgG) VH: EVRLVESGGGLVQPGRSLRLSCAASGFTFDDYAMHWVRQAPGRGLEWVSGISWKGDALGYADSVKGRFTISRDNAKNSLYLQMSSLRAEDTALYYCAKDTGSYHYYYGLDVWGQGTTVAVSS VL: DIQMTQSPSSLSASVGDRVTITCRASQGIRTDLGWYQQKPGKAPKRLIYAASNLHGGVPSRFSGTGSGTDFTLTISSLQPEDFATFFCLQHYSYPLTFGGGTKVEIK | 6540 | 161 | 6.79 |
| Table 1 Line # 41 antibody (SP_Plasma_cell) (antibody, human IgG4, V domains shown, Cloned with human IgG4/human Igk constants for Kd; barcode counts are of the source cell's own IgG) VH: EVQLVESGGGLVQPGRSLRLSCAASGFTFDDYAMHWVRQAPGRGLEWVSGISWKGDALGYADSVKGRFTISRDNAKNSLYLQMSSLRAEDTALYYCAKDTGSYHYYYGLDVWGQGTTVTVSS VL: DIQMTQSPSSLSASVGDRVTITCRASQGIRNDLGWYQQKPGKAPERLIYAASNLQSGVPSRFSGSGSGTEFTLTISSLQPEDFATFYCLQHYSYPLTFGGGTKVEIK | 2460 | 150 | 6.82 |
| Table 1 Line # 13 antibody (BM_Plasma_cell) (antibody, human IgG4, V domains shown, Cloned with human IgG4/human Igk constants for Kd; barcode counts are of the source cell's own IgG) VH: EVQLVESGGEMIRPGGSLRLSCAASGFIFDDYGMSWIRQAPGKGLEWVSGINWNGGHTGYSDSVKGRFTISRDNAKNSLYLQMNSLRAEDTALYHCVRDSSSSWYGVFDYWGQGTLVTVSS VL: DIQMTQSPSSLSASVGDRVTITCRASQGISNSLAWYQQKPGTVPKLLIFAASTLLSGIPSRFSGGGSGTDFTLTISSLQPEDVATYYCQNYNSAPRTFGQGTKVEIK | 2930 | 58.2 | 7.24 |
| Table 1 Line # 16 antibody (BM_Plasma_cell) (antibody, human IgG4, V domains shown, Cloned with human IgG4/human Igk constants for Kd; barcode counts are of the source cell's own IgG) VH: EVQLVESGGGLVQPGRSLRLSCAASGFTFDDYGMHWVRQAPGKGLEWVSGISWNSGHIGYADSVKGRFTISRDNAKNSLNLQMNSLRAEDTALYYCAKDISSSWYGYFDLWGRGTLVTVSS VL: DIQMTQSPSSLSASVGDRVTITCRASQGISNFLAWFQQKPGKVPKLLIYAASTLQSGVPSRFSGSGSGTDFTLTISSLQPEDVATYYCQEYNSAPRTFGQGTKVEIK | 2370 | 8.04 | 8.09 |
| Table 1 Line # 7 antibody (BM_Plasma_cell) (antibody, human IgG4, V domains shown, Cloned with human IgG4/human Igk constants for Kd; barcode counts are of the source cell's own IgG) VH: EVQLVESGGGLVQPGRSLRLSCAASGFTFDDYAMHWVRQAPGKGLEWVSGISWNGASIGYADSLKGRFTISRDNAKNSLYLQMNSLRSEDTALFYCARDYSSAWYGYFDYWGQGTLVTVSS VL: DIQMTQSPSSLSASVGDRVTITCRASQDISNYLAWYQQKPGKVPKLLIYAASTLQSGVPSRFSGSGSGTDFTLTISSLQPEDVATYYCQNYNSVPRTFGQGTKVEIK | 4140 | 15.5 | 7.81 |
| Table 1 Line # 11 antibody (BM_Plasma_cell) (antibody, human IgG4, V domains shown, Cloned with human IgG4/human Igk constants for Kd; barcode counts are of the source cell's own IgG) VH: EVQLVESGGGLVQPGRSLRLSCAASGFTFDDYAMHWVRQAPGKGLEWVSGISWNSGSIGYADSVKGRFTISRDNAKNSLYLQMNSLRAEDTALYYCARDYSSAWYGYFDSWGQGTLVTVSS VL: DIQMTQSPSSLSASVGDRVTITCRASQGINNYLAWYQQKPGKIPKLLIFTASTLQSGVPSRFSGSGSGTDFTLTINSLQPEDVATYYCQNYNSVPRTFGQGTKVEIK | 3210 | 27.5 | 7.56 |
| Table 1 Line # 15 antibody (BM_Plasma_cell) (antibody, human IgG4, V domains shown, Cloned with human IgG4/human Igk constants for Kd; barcode counts are of the source cell's own IgG) VH: EVQLVESGGALVQPGRSLRLSCAASGFAFDDYAMHWVRQAPGKGLEWVSGISWNGASLGYADSLKGRFTISRDNAKNSLYLQMNSLRSEDTALFYCARDYSSAWYGYFDYWGQGTLVTVSS VL: DIQMTQSPSSLSASVGDRVTITCRASQDISNYLAWYQQKPGKVPKLLIYAASTLQSGVPSRFSGSGSGTDFTLTISSLQPQDVATYYCQNYNSVPRTFGQGTKVEIK | 2580 | 19.9 | 7.7 |
| Table 1 Line # 37 antibody (SP_B_cell) (antibody, human IgG4, V domains shown, Cloned with human IgG4/human Igk constants for Kd; barcode counts are of the source cell's own IgG) VH: QVHLVESGGDVVQPGRSLRLSCAASGFTFSYYGMHWVRQAPFKGLEWVAVIWYDGSNKYYADSVKGRFTITRDNSKNTVYLQMNSLRAEDTAIYYCARWGGFGVTGTHLDYWGQGTLVTVSS VL: DIQLTQSPSLLSASVGDRVTITCWASQDIAGHFAWYQQKPGTVPKLLIYAISTLDSGVPSRFSGSRSGTEFTLTISSLQPEDFATYYCQHLNSYPYTFGQGTKLEIK | 6230 | 197 | 6.71 |
| Table 1 Line # 18 antibody (BM_Plasma_cell) (antibody, human IgG4, V domains shown, Cloned with human IgG4/human Igk constants for Kd; barcode counts are of the source cell's own IgG) VH: EVQLVQSGAEVKKPGESLKISCKGSGYRFTTNWIGWVRQMPGKGLEWMGIIYPDDSDTRYSPSFQGQVTISADKSINTAYLHWNSLKSSDTAIYYCARGANWFDPWGQGTLVTVSS VL: EIVLTQSPGILSLSPGKRATLSCRASQSVSSNFLAWYQQKPGQAPRLLIYGTSSRANGIPDRFSGSGSGTDFTLTISGLEPEDFAEYYCQQYGSSVTFGQGTRLEIK | 2170 | 41.4 | 7.38 |
| Table 1 Line # 42 antibody (SP_Plasma_cell) (antibody, human IgG4, V domains shown, Cloned with human IgG4/human Igk constants for Kd; barcode counts are of the source cell's own IgG) VH: EVQLLESGGGLVQPGGSLRLSCAASGFTFISYTLSWVRQAPGKGLEWVSAISGSGGSTYYVDSVKGRFTISRDNSRNTLYLQMNSLRAEDTAVYYCAKDLGSTVYWGQGTLVTVSS VL: not shown | 2080 | 127 | 6.9 |
| Table 1 Line # 34 antibody (SP_B_cell) (antibody, human IgG4, V domains shown, Cloned with human IgG4/human Igk constants for Kd; barcode counts are of the source cell's own IgG) VH: EVQLVASGGDLVQPGRSLRLSCAASGFTFDDFGMHWVRQAPGKGLEWVSGISWNGGHMGYAASVKGRFTMSRDNAKNSLYLQMNSLRVEDTALYYCVKEFSSSWYGFFDLWGRGTLVTVSS VL: DIQMTQSPSSLSASVGDRVTITCRASQGLGNSVAWYQQKPGQIPRLLISAAASLQSGVPSRFSGSGSGTDFTLTISSLQPEDVATYYCQNYNSAPRTFGQGTNVEIK | 6890 | 34.2 | 7.47 |
| Table 1 Line # 46 antibody (SP_Plasma_cell) (antibody, human IgG4, V domains shown, Cloned with human IgG4/human Igk constants for Kd; barcode counts are of the source cell's own IgG) VH: EVQLEASGGDLVQPGRSLRLSCAASGFIFDDFGMHWVRQAPGKGLEWVSGISWNGGHIGYADSVKGRFTISRDNAKNSLYLQMNSLRAEDTALYYCAKEHSSSWYGFFDFWGRGTLVTVSS VL: DIQMTQSPSSLSASVGDRVTITCRASQGLSNSVAWYQQKPGQIPRLLISAAASLQSGVPSRFSGSGSGTDFTLTISRLQPEDVATYYCQNYNSAPRTFGQGTNVEIK | 1520 | 49.2 | 7.31 |
| Table 1 Line # 40 antibody (SP_Plasma_cell) (antibody, human IgG4, V domains shown, Cloned with human IgG4/human Igk constants for Kd; barcode counts are of the source cell's own IgG) VH: QVQLQESGPGLVKPSETLSLTCTISGGSISTYYWSWIRQPPGKGLEWIGYIYYSGNTNYNPSLKSRVTISVDTSKNQFSLKLNSVTAADTAVYYCARHRGSYVYGMDVWGQGTTVTVSS VL: DIQMTQSPSSLSASLVDRVTITCRASQTISSYLNWYQQKPGKAPKLLIYGASILQSGVPSRFSGSGSGTDFTLTISSLQPEDHAVYFCQQSYSSPTFGGGTKVEIK | 5520 | 118 | 6.93 |
| Table 1 Line # 1 antibody (BM_Plasma_cell) (antibody, human IgG4, V domains shown, Cloned with human IgG4/human Igk constants for Kd; barcode counts are of the source cell's own IgG) VH: EVQLVESGGGLVKPGGSLRLSCAASGFTFSSYSMNWVRQAPGKGLEWVSSISSSSSYIYYADSVKGRFTISRDNAKNSLYLQMNSLRAEDTAVYYCASLAARPFWGQGTMVTVSS VL: DIQMTQSPSSVSASVGDRVTITCRASQGISSWLAWYQQKPGRAPKLLIYAASSLQSGVPSRFSGSGSGTDFTLTISSLQPEDFATYYCQQANSFPLTFGGGTKVEIK | 11200 | 416 | 6.38 |
| Table 1 Line # 35 antibody (SP_B_cell) (antibody, human IgG4, V domains shown, Cloned with human IgG4/human Igk constants for Kd; barcode counts are of the source cell's own IgG) VH: EVQLVESGGGLVKPGGSLRLSCAASGFTFSSYSMNWVRQAPGKGLEWVSSISSSSSYIYYADSVKGRFTISRDNAKNSLYLQMNSLRAEDTAVYYCARDRSSSPLENWGQGTLVTVSS VL: DIQMTQSPSSVSASVGDRVTITCRASQGISSWLAWYQQKPGKAPKLLIYAASSLQSGVPSRFSGSGSGTDFTLTISSLQPEDFATYYCQQANSFPITFGQGTRLEIK | 6710 | 29.3 | 7.53 |
| Table 1 Line # 49 antibody (SP_Plasma_cell) (antibody, human IgG4, V domains shown, Cloned with human IgG4/human Igk constants for Kd; barcode counts are of the source cell's own IgG) VH: EVHLLESGGGFIQPGGSLRLSCAASGFTFSTYAMNWVRLAPGKGLEWVSTISGSGGFTSYTDSVQGRFTISRDNSKNKLYLQINNLTAEDTAVYYCAKDRRIVGATGFDYWGQGALVTVSS VL: DIQMTQSPSSLSASAGDRVTITCRASQSISSYLNWYQQKPGKAPKLLIYAASSLQSGVPSRFSGSGSGTDFTLTISSLQPEDSATYYCQQSYGFHTFGQGTRLEIK | 1200 | 132 | 6.88 |
| Table 1 Line # 53 antibody (SP_Plasma_cell) (antibody, human IgG4, V domains shown, Cloned with human IgG4/human Igk constants for Kd; barcode counts are of the source cell's own IgG) VH: EIQLVESGGGLVQPGRSLRLSCAASGFTFDDYAMHWVRQAPGKGLEWVSGINWNNGSLGYADSVKGRFTISRDNAKNSLYLQMNSLRTEDTALYYCVKDTGSWASYYGMDVWGHGTTVTVSS VL: DIQMTQSPSSLSASIGDRVTITCRASQGIRNDLGWYQQKPGKAPKRLIYAASSLQSGVPSRFSGSGSGTEFTLTISSLQPEDFATYYCLQHNSYPYTFGQGTKLEIK | 818 | 247 | 6.61 |
| Table 1 Line # 54 antibody (SP_Plasma_cell) (antibody, human IgG4, V domains shown, Cloned with human IgG4/human Igk constants for Kd; barcode counts are of the source cell's own IgG) VH: QVQLVQSGAEVKKPGASVKVSCKASGYTFTNYGISWVRQAPGQGLEWMGWISVYNGNTNYAQKLQGRVTMTTDTSTSTAYMEVRSLRSDDTAVYYCARGVNWNYVFDYWGQGTLVTVSS VL: DIQMTQSPSSLSASVGDRVTITCRASQGIRNDLGWYQQKPGKAPKRLIYVVSSLQSGVPSRFSGSGSGTEFTLTISSLQPEDFATYYCLQHNSYPWTFGQGTKVEIK | 815 | 13.5 | 7.87 |
